From patent publication US20150104459A1 (published 2015) come the findings set out here.

In test [1] the target is hemagglutinin (HA) of live influenza A/Solomon Islands/3/06 (H1N1) virus (influenza A virus A/Solomon …). Briefly: cell-based or functional assay.
Test [2] has as its target hemagglutinin (HA) of live influenza A/Wisconsin/67/05 (H3N2) virus (influenza A virus A/Wisconsin/67/2005 …). Briefly: cell-based or functional assay.
Test [3] concerns the target hemagglutinin (HA) of live influenza A/California/4/09 (H1N1) virus (influenza A virus A/California/04/2009 …). Put plainly: cell-based or functional assay.
For test [4], the target named is recombinant soluble homotrimeric HA, A/duck/Yangzhou/02/2005 (H8N4) (influenza A virus …). Briefly: microarray, trimeric HA, transfection supernatant.
In test [5] the target is recombinant soluble homotrimeric HA, A/Netherlands/219/03 (H7N7) (influenza A virus A/Netherlands/219/03 …). Briefly: microarray, trimeric HA, transfection supernatant.
Test [6] addresses recombinant soluble homotrimeric HA, A/Anhui/1/05 (H5N1) (influenza A virus A/Anhui/1/2005 (H5N1)). Put plainly: microarray, trimeric HA, transfection supernatant.
For test [7], the target named is recombinant soluble homotrimeric HA, A/northern shoveler/California/HKWF115/2007 (H6N1) (influenza A virus A/northern …). Put plainly: microarray, trimeric HA, transfection supernatant.
The target in test [8] is recombinant soluble homotrimeric HA, A/Hong Kong/156/97 (H5N1) (influenza A virus A/Hong Kong/156/97 …). Put plainly: microarray, trimeric HA, transfection supernatant.
For test [9], the target named is recombinant soluble homotrimeric HA, A/chicken/Vietnam/NCVD-016/08 (H5N1) (influenza A virus …). Put plainly: microarray, trimeric HA, transfection supernatant.
Test [10] has as its target recombinant soluble homotrimeric HA of A/northern shoveler/California/HKWF115/2007 (H6N1) (Influenza A virus A/northern …). Briefly: HA microarray, BCC supernatant.
Test [11] addresses recombinant soluble homotrimeric HA of A/duck/Yangzhou/02/2005 (H8N4) (Influenza A virus …). Put plainly: HA microarray, BCC supernatant.

B1: TCN-551 (5243_D01) (antibody, V domains shown)
VH: EVQLVQSGSEVKKPGESLKISCKGSGYSFSNYWIGWVRHMPGKGLEWMGIIYPGDSDTRYSPSFQGQVTMSADKSSSTVYLQWSSLKASDTAIYYCARRGGHSFGYGSGGDTHSEFDSWGQGTLVTVSS
VL: QSVLTQSPSVSAAPGQKVTISCSGSDSNIGDYFVCWYQHLPGKPPQLLIYENNKRPSGIPDRFSGSKSGTSATLGITGIQTGDEADYYCATWDGSLSAWVFGGGTKLTVL
Regarding B1, the “% Neutralization” value is 99% in test [1] and 6% in test [2].

B2: TCN-552 (5249_I23) (antibody, V domains shown)
VH: QVQVVQSGAEVKKPGSSVRVSCQASGGTFMNYAIIWVRRAPGQGLEWMGGIIPVFPTPNYAQMFQGRVTISTDESRSTSFLELTNLRYEDTAVYYCARRIYHGGNSGFDFWGQGTLVTVSS
VL: EIVLTQSPATLSLSPGERATLSCRASQSVGNYLAWYQQKPGQAPRLLIYDSSNRAPGIPARFSGSGSGTDFTLTISSLAPEDFAVYYCQQRSKWPPMYSFGHGTKLEIK
On to B2, for which the “% Neutralization” value was 0% in test [1] and 14% in test [2].

B3: TCN-542 (5079_A16) (antibody, V domains shown)
VH: QVQLQESGPGLVKPSQTLSLTCTVSGGSISSGNYYWNWVRQHPGKGLEWIGYIYYRGSTFYNPSLKSRVTISIDTSKNQFSLRLSSVTAADTAVYYCAKDTRSSLDNYQYGMDVWGQGTTVTVSS
VL: QTVVTQEPSLTVSPGGTVTLTCASSTGAVTSSYFPNWFQQKPGQAPRPLIYSTTIRHSWTPARFSGSLLGGKAALTLSGVQPEDEADYYCLLYSGGDPVAFGGGTKLTVL
As to B3, the “% Neutralization” value in test [1] came out at 99%; in test [3], 15%; in test [2] it was 8%.

B4: TCN-560 (5084_P10) (antibody, V domains shown)
VH: EVQLVESGGGLVQPGGSLRLSCAASGFIFRNYWMSWVRQAPGKGLEWVANIKQDGREKYYVDSLRGRVNISRDNAENSLYLHMNSLRVEDTAVYFCARARMVVVTGDGFDVWGHGTMVTVSS
VL: DIQMTQSPSSLSASVGDRVTITCRASQNIKRYFNWYQQKPGKAPKLLIYAASNLENGVPSRFSGSGSGTDFTLTISSLQPEDFATYYCQQSFSKSWTFGQGTNVDIK
For the molecule B4, the “Trimeric HA Binding RLU” value in [4] was determined as 27900 RLU; in test [5], 32100 RLU; in test [6], 18600 RLU; in [7], 35900 RLU; in [8], 29300 RLU; in test [9], 18200 RLU.

B5: TCN-560 (5084_P10) (antibody, V domains shown)
VH: B4 VH
VL: B4 VL
Consider B5, for which the “Trimeric HA Binding RLU” value worked out at 42300 RLU in test [10] and 44700 RLU in test [11].

B6: TCN-553 (5261_C18) (antibody, V domains shown)
VH: QVQVVQSGTEVKKPGSSVKVSCQTSGGRFMSYAITWVRQAPGQGLEWMGGIVPVFGTANYAQKFQGRVTITTDDSTRTAYMELSSLRSEDTAVYYCGFRYGSGYGFDSWGQGTLVTVSS
VL: EIVLTQSPGTLSLSPGERATLSCRASQSVSSSYLAWYQKKPGQAPRLLIYGASTRATGIPDRFTGSGSGTDFTLSISRLEPEDFAVYYCQHFGTSVFTFGGGTKVEIK
On to B6, for which the “% Neutralization” value in test [1] amounted to 44%; in test [2], 5%.

B7: TCN-555 (5246_L16) (antibody, V domains shown)
VH: QVQLVQSGAEVKRPGSSVKVSCTASGGIFRKNAISWVRQAPGQGLEWMGGIIAVFNTANYAQKFQNRVKITADESGNTAYMELSSLTSDDTAVYYCASHPKYFYGSGSYPDFWGQGTLVTVSS
VL: QSALTQPRSVSGSPGQSITISCTGGSSDIGASNSVSWYQQHPGKAPKLVIFDVTERPSGVPHRFSGSKSGNTASLTVSGLQPDDEADYFCCAYGGKYLVVFGGGTKVTVL
For B7, the “% Neutralization” value was found to be 49% in [1] and 5% in test [2].

B8: TCN-546 (5089_L08) (antibody, V domains shown)
VH: QVQLQQWGAGLLKPSETLSLTCGVYGGSLSDYYWSWIRQPPGKGLEWIGEINHSGGTNYNPSLKRRVTISVDTSKKQFSLKMNSVTAADTAVYYCARGTDPDTEVYCRAGNCAAFDFWGQGTLVTVSS
VL: EIVLTQSPGTLSLSPGERATLSCRASHFVIGRAVAWYQQKPGQAPRLLIYGASSRATGIPDRFSGSGSGTDFTLTISRLETEDFAVFYCQHYGSSPRYAFGQGTKLEIK
As to B8, the “% Neutralization” value amounted to 98% in test [1], 0% in [3] and 100% in [2].

B9: TCN-558 (5248_H10b) (antibody, V domains shown)
VH: QVQLVQSGSEVKKPGTSVKVSCTASGSVFTNYGISWVRQAPGQGLEWMGGIIPLFGAAKYAQKFQGRVTITADESTKTVYMELSRLTSKDTAIYFCAKAPRVYEYYFDQWGQGTPVTVSS
VL: EIVMTQFPATLSVSPGERVTLSCRASQSVSNNLAWYQQKPGQPPRLLIYDASTRATGVPAKFSGTGSGTEFTLSISSLQSEDFAVYYCQQYHNWPPSYSFGLGTKLEIK
Take B9: the “% Neutralization” value is 84% in [1] and 7% in test [2].

B10: TCN-556 (5089_K12) (antibody, V domains shown)
VH: QVQLVQSGAEVKKPGASVKVSCKASGYTFIGYDMHWVRQAPGQGLEWMGWINAKRGGTNYAQKFQGRVTMTRDTSISTAYMELNSLRSDDTAVYYCARGVGSRTTIFGVLNPEFDYWGQGTLVTVSS
VL: QSALTQPPSASGSPGQSVTISCTGSSSDVGGYDYVSWYQQHPGKAPKLLIYEVTKRPSGVPDRFSGSKSGNTASLTVSGLQAEDEADYYCSSYAGNYNHVFGPGTKVTVL
As to B10, the “Trimeric HA Binding RLU” value worked out at 22400 RLU in test [4]; 43600 RLU in test [5]; 13800 RLU in test [6]; 34800 RLU in test [7]; 24600 RLU in [8]; 22700 RLU in test [9].

B11: TCN-556 (5089_K12) (antibody, V domains shown)
VH: B10 VH
VL: B10 VL
In the case of B11, the “Trimeric HA Binding RLU” value in test [10] came out at 11900 RLU; in test [11] it was 16900 RLU.
